This passage reports percent CAR-positive cells results from patent US20230303708A1.

For the assay, the target named is hBCMA-41BB-CD3 CAR (CAR-PMC750). The experiment in a line: FACS of CAR-T cells stained with biotinylated goat anti-mouse F(ab)'2 and PE-streptavidin, day 9 of expansion.
Sequence of hBCMA-41BB-CD3 CAR (CAR-PMC750) (chain, as listed by the source): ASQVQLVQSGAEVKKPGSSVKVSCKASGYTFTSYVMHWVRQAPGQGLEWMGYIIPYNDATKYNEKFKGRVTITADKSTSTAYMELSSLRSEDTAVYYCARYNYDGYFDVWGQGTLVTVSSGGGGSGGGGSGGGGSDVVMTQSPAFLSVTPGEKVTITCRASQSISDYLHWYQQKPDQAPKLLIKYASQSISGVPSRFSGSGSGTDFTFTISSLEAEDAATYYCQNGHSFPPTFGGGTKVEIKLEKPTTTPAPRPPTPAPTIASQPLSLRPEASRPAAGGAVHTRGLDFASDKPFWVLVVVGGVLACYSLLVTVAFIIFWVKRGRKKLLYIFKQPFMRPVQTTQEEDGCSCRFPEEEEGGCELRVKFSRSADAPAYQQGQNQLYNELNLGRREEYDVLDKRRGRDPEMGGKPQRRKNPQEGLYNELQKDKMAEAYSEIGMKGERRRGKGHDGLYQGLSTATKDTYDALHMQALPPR

Take “biotin-conjugated goat anti-mouse F(ab)'2 (antibody)”: the percent CAR-positive cells is more than 70%.
